Among the data in the supplement of paper PMC10567573 are protein stability index values, retold here.

Sequences and labels used below:
B1: SCARA5 (parent)
chain: VTEDLRLKDWEHSIALRNISLAKG
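Note: lentivirally expressed fusions sorted by FACS into six bins by GFP to DsRed ratio, PSI derived from sequencing read proportions per bin multiplied by bin number.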

The data set covers variants of B1. The data set is described as follows: protein stability index of a GFP-peptide fusion (GPS, HEK-293T) (PSI 1-6); higher = more stable. The conditions noted are these: c terminus: a fixed tail appended.
On to VTEDLRLTDWEHSIALRNISLAKG [K8T], for which the protein stability index was found to be 3.27.
The figure for VTEDLRLCDWEHSIALRNISLAKG [K8C] is 3.25; for VTEDLRLGDWEHSIALRNISLAKG [K8G] it is 3.18; for VTEDLRLFDWEHSIALRNISLAKG [K8F] it is 2.85.
The figure for VTEDLRLEDWEHSIALRNISLAKG [K8E] is 3.49.
Turning to VTEDLRLIDWEHSIALRNISLAKG [K8I], the protein stability index came out at 2.87.
Consider VTEDLRLYDWEHSIALRNISLAKG [K8Y], for which the protein stability index was 2.83.
The figure for VTEDLRLDDWEHSIALRNISLAKG [K8D] is 3.62.
Under VTEDLRLSDWEHSIALRNISLAKG [K8S] stands 3.28.
Under VTEDLRLPDWEHSIALRNISLAKG [K8P] stands 3.48.
VTEDLRLHDWEHSIALRNISLAKG [K8H]: the protein stability index was 3.44.
The figure for VTEDLRLNDWEHSIALRNISLAKG [K8N] is 3.48; for VTEDLRLMDWEHSIALRNISLAKG [K8M] it is 2.77; for VTEDLRLWDWEHSIALRNISLAKG [K8W] it is 2.57.
Under VTEDLRLADWEHSIALRNISLAKG [K8A] stands 3.43; under VTEDLRLQDWEHSIALRNISLAKG [K8Q], 2.91; under VTEDLRLVDWEHSIALRNISLAKG [K8V], 2.82.
The figure for VTEDLRLRDWEHSIALRNISLAKG [K8R] is 3.11; for VTEDLRLLDWEHSIALRNISLAKG [K8L] it is 3.04; for VTEDLRLKDWKHSIALRNISLAKG [E11K] it is 3.3.
Turning to VTEDLRLKDWHHSIALRNISLAKG [E11H], the protein stability index amounted to 2.72.
Take VTEDLRLKDWFHSIALRNISLAKG [E11F]: the protein stability index amounted to 2.24.
The figure for VTEDLRLKDWCHSIALRNISLAKG [E11C] is 2.47; for VTEDLRLKDWGHSIALRNISLAKG [E11G] it is 2.87.
Regarding VTEDLRLKDWDHSIALRNISLAKG [E11D], the protein stability index came out at 3.33.
The figure for VTEDLRLKDWAHSIALRNISLAKG [E11A] is 2.51; for VTEDLRLKDWLHSIALRNISLAKG [E11L] it is 2.74.
Under VTEDLRLKDWIHSIALRNISLAKG [E11I] stands 1.91; under VTEDLRLKDLEHSIALRNISLAKG [W10L], 3.55.
The figure for VTEDLRLKDREHSIALRNISLAKG [W10R] is 4.45; for VTEDLRLKDNEHSIALRNISLAKG [W10N] it is 4.26.
As to VTEDLRLKDIEHSIALRNISLAKG [W10I], the protein stability index was 3.41.
The figure for VTEDLRLKDPEHSIALRNISLAKG [W10P] is 4.41; for VTEDLRLKDTEHSIALRNISLAKG [W10T] it is 4.26; for VTEDLRLKDEEHSIALRNISLAKG [W10E] it is 4.62.
The figure for VTEDLRLKDMEHSIALRNISLAKG [W10M] is 3.67; for VTEDLRLKDAEHSIALRNISLAKG [W10A] it is 4.28.
Under VTEDLRLKDGEHSIALRNISLAKG [W10G] stands 4.63; under VTEDLRLKDQEHSIALRNISLAKG [W10Q], 4.29; under VTEDLRLKDSEHSIALRNISLAKG [W10S], 4.39.
Regarding VTEDLRLKDHEHSIALRNISLAKG [W10H], the protein stability index was determined as 4.37.
The figure for VTEDLRLKDFEHSIALRNISLAKG [W10F] is 3.12; for VTEDLRLKDKEHSIALRNISLAKG [W10K] it is 4.22; for VTEDLRLKDDEHSIALRNISLAKG [W10D] it is 4.67.
Under VTEDLRLKDCEHSIALRNISLAKG [W10C] stands 4.11; under VTEDLRLKDYEHSIALRNISLAKG [W10Y], 3.62.
Under VTEDLRLKDVEHSIALRNISLAKG [W10V] stands 4.14.
VMEDLRLKDWEHSIALRNISLAKG [T2M]: the protein stability index was 3.38.
Under VLEDLRLKDWEHSIALRNISLAKG [T2L] stands 2.49; under VAEDLRLKDWEHSIALRNISLAKG [T2A], 3.21.
The figure for VFEDLRLKDWEHSIALRNISLAKG [T2F] is 2.61.
The figure for VHEDLRLKDWEHSIALRNISLAKG [T2H] is 3.52; for VYEDLRLKDWEHSIALRNISLAKG [T2Y] it is 3.17; for VKEDLRLKDWEHSIALRNISLAKG [T2K] it is 3.65.
For VVEDLRLKDWEHSIALRNISLAKG [T2V], the protein stability index came out at 3.48.
The figure for VDEDLRLKDWEHSIALRNISLAKG [T2D] is 3.8.
With VCEDLRLKDWEHSIALRNISLAKG [T2C], the protein stability index was determined as 3.12.
The figure for VSEDLRLKDWEHSIALRNISLAKG [T2S] is 3.11; for VIEDLRLKDWEHSIALRNISLAKG [T2I] it is 2.5; for VQEDLRLKDWEHSIALRNISLAKG [T2Q] it is 3.58.
For the variant VNEDLRLKDWEHSIALRNISLAKG [T2N], the protein stability index stood at 3.85.
Under VGEDLRLKDWEHSIALRNISLAKG [T2G] stands 3.26; under VWEDLRLKDWEHSIALRNISLAKG [T2W], 2.46; under VEEDLRLKDWEHSIALRNISLAKG [T2E], 4.15.
For the variant VREDLRLKDWEHSIALRNISLAKG [T2R], the protein stability index was 3.21.
Under VPEDLRLKDWEHSIALRNISLAKG [T2P] stands 3.69.
The figure for VTEDLILKDWEHSIALRNISLAKG [R6I] is 3.15.
Under VTEDLLLKDWEHSIALRNISLAKG [R6L] stands 3.29; under VTEDLVLKDWEHSIALRNISLAKG [R6V], 3.95; under VTEDLELKDWEHSIALRNISLAKG [R6E], 3.58.
On to VTEDLNLKDWEHSIALRNISLAKG [R6N], for which the protein stability index worked out at 3.22.
Take VTEDLALKDWEHSIALRNISLAKG [R6A]: the protein stability index was determined as 3.63.
Under VTEDLCLKDWEHSIALRNISLAKG [R6C] stands 3.86; under VTEDLWLKDWEHSIALRNISLAKG [R6W], 2.62.
As to VTEDLDLKDWEHSIALRNISLAKG [R6D], the protein stability index is 3.73.
Take VTEDLFLKDWEHSIALRNISLAKG [R6F]: the protein stability index was 3.56.
Under VTEDLQLKDWEHSIALRNISLAKG [R6Q] stands 3.79.
Regarding VTEDLYLKDWEHSIALRNISLAKG [R6Y], the protein stability index came to 2.85.
The figure for VTEDLGLKDWEHSIALRNISLAKG [R6G] is 3.53; for VTEDLSLKDWEHSIALRNISLAKG [R6S] it is 3.27.
VTEDLMLKDWEHSIALRNISLAKG [R6M]: the protein stability index turned out to be 2.99.
The figure for VTEDLTLKDWEHSIALRNISLAKG [R6T] is 3.75; for VTEDLKLKDWEHSIALRNISLAKG [R6K] it is 3.66.
Under VTEDLHLKDWEHSIALRNISLAKG [R6H] stands 3.62; under VTEDLPLKDWEHSIALRNISLAKG [R6P], 3.26.
For the variant VTKDLRLKDWEHSIALRNISLAKG [E3K], the protein stability index was determined as 3.
VTVDLRLKDWEHSIALRNISLAKG [E3V]: the protein stability index stood at 1.69.
For VTTDLRLKDWEHSIALRNISLAKG [E3T], the protein stability index was determined as 2.71.
Under VTRDLRLKDWEHSIALRNISLAKG [E3R] stands 2.96; under VTNDLRLKDWEHSIALRNISLAKG [E3N], 3.03.
The figure for VTCDLRLKDWEHSIALRNISLAKG [E3C] is 2.25.
On to VTADLRLKDWEHSIALRNISLAKG [E3A], for which the protein stability index amounted to 1.74.
Under VTQDLRLKDWEHSIALRNISLAKG [E3Q] stands 2.63; under VTIDLRLKDWEHSIALRNISLAKG [E3I], 2.26.
